± gives the uncertainty stated by the source.
B1: POU domain, class 3, transcription factor 2, residues 262 to 338; numbered along this chain, P20265 (parent)
chain: EDTPTSDDLEQFAKQFKQRRIKLGFTQADVGLALGTLYGNVFSQTTICRFEALQLSFKNMCKLKPLLNKWLEEADSS
B2: Lysine-specific demethylase 2B, residues 656 to 722; numbered along this chain, Q8NHM5 (parent)
chain: LPHTAVCLVCGEAGKEDTVEEEEGKFNLMLMECSICNEIIHPGCLKIKESEGVVNDELPNCWECPKC

Variants of: B1
Test: abundance fitness (aPCA) (normalised: wild type 0, dead -1); higher = more abundant; growth selection in yeast, the domain comes from the species named
Conditions: Homo sapiens

Abundance fitness, by site and new letter:
P65: G -0.108 ± 0.05 | S -0.38 ± 0.19 | W -0.201 ± 0.092 | Q 0.124 ± 0.14 | K -0.213 ± 0.22 | T -0.059 ± 0.12 | C 0.038 ± 0.2 | A -0.139 ± 0.094 | H -0.034 ± 0.25 | E -0.133 ± 0.072 | Y 0.137 ± 0.23 | L -0.375 ± 0.13 | N -0.138 ± 0.17 | R -0.182 ± 0.051 | D -0.118 ± 0.097 | V -0.082 ± 0.074
L71: F -0.699 ± 0.22 | G -0.445 ± 0.088 | R -0.427 ± 0.077 | S -0.207 ± 0.075 | E -0.598 ± 0.49 | A -0.504 ± 0.16 | C -0.847 ± 0.37 | I -0.422 ± 0.37 | V -0.089 ± 0.12 | Y -0.168 ± 0.17 | K -0.559 ± 0.2 | W -0.465 ± 0.12 | M 0.067 ± 0.12
A74: Q -0.046 ± 0.055 | L -0.09 ± 0.037 | M -0.088 ± 0.049 | E -0.065 ± 0.037 | Y -0.151 ± 0.069 | W -0.172 ± 0.036 | K -0.037 ± 0.051 | C 0.034 ± 0.046 | T -0.026 ± 0.05 | S -0.168 ± 0.039 | P -0.274 ± 0.068 | H -0.032 ± 0.067 | V 0.041 ± 0.034 | R -0.036 ± 0.029 | G -0.331 ± 0.03
L66: S -0.423 ± 0.041 | W -0.148 ± 0.034 | K -0.096 ± 0.043 | H -0.274 ± 0.08 | A -0.137 ± 0.034 | G -0.536 ± 0.037 | D -0.767 ± 0.23 | E -0.637 ± 0.061 | R -0.242 ± 0.029 | M -0.015 ± 0.042 | Q -0.233 ± 0.046 | I -0.071 ± 0.063 | V -0.077 ± 0.03 | N -0.504 ± 0.1 | P -0.437 ± 0.064 | Y -0.22 ± 0.081 | F -0.05 ± 0.048 | C -0.239 ± 0.05
N68: L 0.004 ± 0.07 | G 0.074 ± 0.065 | A -0.007 ± 0.077 | M -0.284 ± 0.27 | V 0.085 ± 0.077 | T 0.046 ± 0.085 | C -0.096 ± 0.13 | R -0.004 ± 0.074 | D -0.182 ± 0.12 | W 0.004 ± 0.1 | Q -0.313 ± 0.43 | P -0.98 ± 0.47
K69: C -0.449 ± 0.16 | Q -0.003 ± 0.087 | F -0.234 ± 0.14 | S -0.146 ± 0.1 | V -0.273 ± 0.084 | N -0.298 ± 0.25 | Y 0.138 ± 0.16 | D -0.264 ± 0.14 | W -0.288 ± 0.16 | R 0.019 ± 0.056 | E -0.231 ± 0.1 | L -0.144 ± 0.092 | A -0.094 ± 0.07 | T -0.02 ± 0.08 | M 0.112 ± 0.14
W70: Y -0.381 ± 0.099 | E -0.742 ± 0.077 | K -0.814 ± 0.12 | D -0.431 ± 0.15 | G -0.754 ± 0.041 | Q -0.728 ± 0.088 | R -0.649 ± 0.039 | M -0.669 ± 0.084 | A -0.519 ± 0.048 | V -0.411 ± 0.042 | S -0.742 ± 0.065 | L -0.502 ± 0.043 | F -0.111 ± 0.068 | C -0.698 ± 0.11 | I -0.64 ± 0.15 | N -0.358 ± 0.18 | T -1.06 ± 0.18 | H -0.943 ± 0.21 | P -0.853 ± 0.11
E73: Q 0.159 ± 0.098 | F -0.057 ± 0.14 | G -0.036 ± 0.05 | W -0.076 ± 0.073 | Y 0.129 ± 0.14 | A -0.145 ± 0.081 | C 0.024 ± 0.12 | R -0.147 ± 0.066 | V -0.067 ± 0.073 | H -0.218 ± 0.27 | T 0.089 ± 0.073 | N -0.192 ± 0.34 | L -0.013 ± 0.06 | K 0.118 ± 0.089 | S -0.071 ± 0.068 | I -0.009 ± 0.12 | P -0.416 ± 0.17 | D 0.06 ± 0.1
E72: Q 0.003 ± 0.051 | W -0.177 ± 0.043 | C -0.042 ± 0.056 | A -0.017 ± 0.037 | F -0.191 ± 0.066 | G -0.178 ± 0.033 | Y -0.217 ± 0.085 | I -0.102 ± 0.058 | T -0.073 ± 0.042 | L 0.004 ± 0.035 | K -0.12 ± 0.087 | R -0.068 ± 0.03 | M -0.117 ± 0.054 | S -0.13 ± 0.038 | V 0.017 ± 0.035 | N -0.094 ± 0.063 | P -0.655 ± 0.11
K64: I -0.246 ± 0.083 | V -0.155 ± 0.034 | H -0.051 ± 0.074 | L -0.131 ± 0.037 | T -0.118 ± 0.045 | P -0.931 ± 0.19 | N -0.944 ± 0.26 | Q -0.067 ± 0.045 | Y -0.019 ± 0.068 | R -0.092 ± 0.031 | S -0.226 ± 0.042 | W -0.199 ± 0.04 | M -0.06 ± 0.05
S76: C -0.075 ± 0.043 | I -0.153 ± 0.063 | D 0.042 ± 0.048 | V 0.01 ± 0.032 | M -0.021 ± 0.045 | W -0.163 ± 0.034 | Q 0.055 ± 0.047 | A 0.05 ± 0.031 | H 0.023 ± 0.064 | N 0.013 ± 0.05 | E 0.002 ± 0.038 | K 0.021 ± 0.046 | R 0.028 ± 0.028 | F -0.161 ± 0.056 | Y -0.14 ± 0.068 | T -0.019 ± 0.043 | G 0.004 ± 0.026 | P -0.012 ± 0.044 | L -0.099 ± 0.033
L67: V -0.525 ± 0.099 | M 0.006 ± 0.085 | G -1.05 ± 0.21 | W -0.798 ± 0.16 | D -0.759 ± 0.43 | E -0.936 ± 0.27 | S -0.619 ± 0.13 | A -0.553 ± 0.12 | T -0.407 ± 0.32 | C -0.504 ± 0.23 | F -0.399 ± 0.2 | K -0.688 ± 0.18 | P -0.654 ± 0.16
S77: D -0.003 ± 0.064 | P 0.003 ± 0.041 | G 0.061 ± 0.036 | W -0.105 ± 0.065 | H -0.011 ± 0.079 | L -0.028 ± 0.05 | R 0.054 ± 0.045 | C -0.184 ± 0.067 | T 0.073 ± 0.049 | E -0.016 ± 0.051 | F -0.155 ± 0.13 | N -0.169 ± 0.11 | A 0.115 ± 0.038 | V 0.008 ± 0.042 | I -0.031 ± 0.077 | M -0.17 ± 0.078 | K -0.097 ± 0.074
D75: W -0.085 ± 0.034 | G -0.032 ± 0.027 | V -0.135 ± 0.031 | E 0.071 ± 0.034 | C -0.161 ± 0.049 | H -0.081 ± 0.06 | P -0.106 ± 0.049 | R -0.058 ± 0.028 | M -0.022 ± 0.037 | T -0.014 ± 0.042 | I -0.089 ± 0.092 | A 0.009 ± 0.031 | S 0.032 ± 0.033 | L -0.133 ± 0.034 | Y -0.046 ± 0.056 | K -0.058 ± 0.047 | F -0.3 ± 0.1 | N -0.032 ± 0.059

Variants of: B2
Test: as above
Conditions: Homo sapiens

Abundance fitness of substitutions, site by site:
L8: H -0.281 ± 0.3 | I 0.099 ± 0.24 | P -0.433 ± 0.24 | R 0.104 ± 0.14 | M 0.172 ± 0.29 | E -0.584 ± 0.23 | S -0.34 ± 0.17 | G -0.588 ± 0.17 | D -0.573 ± 0.24 | K 0.146 ± 0.13
C7: D -0.902 ± 0.34 | A -0.691 ± 0.28 | Y -1.04 ± 0.2 | T -0.491 ± 0.41 | R -0.908 ± 0.31
P2: C 0.396 ± 0.13 | N 0.758 ± 0.17 | I 0.783 ± 0.15 | L 0.807 ± 0.12 | A 0.708 ± 0.14 | W 0.667 ± 0.14 | F 0.359 ± 0.31 | T 0.844 ± 0.1 | Y 0.713 ± 0.097 | G 0.588 ± 0.14 | Q 0.184 ± 0.15 | K 0.78 ± 0.15 | R 0.664 ± 0.11 | E 0.854 ± 0.14 | D 0.787 ± 0.15 | S 0.729 ± 0.13
A5: E -0.696 ± 0.29 | R 0.073 ± 0.14 | L -0.004 ± 0.13 | K 0.038 ± 0.17 | W 0.055 ± 0.17 | S -0.192 ± 0.15 | M 0.195 ± 0.088 | C 0.07 ± 0.3 | Y 0.625 ± 0.35 | T 0.138 ± 0.16 | D -0.726 ± 0.34 | G -0.338 ± 0.17 | Q -0.095 ± 0.22 | N -0.051 ± 0.26 | P 0.006 ± 0.13
V6: Q -0.541 ± 0.3 | L -0.004 ± 0.1 | E -0.378 ± 0.19 | R -0.285 ± 0.14 | N -0.085 ± 0.23 | I 0.145 ± 0.088 | D -0.293 ± 0.49 | A -0.557 ± 0.25 | K 0.194 ± 0.1 | W -0.759 ± 0.2 | P -0.124 ± 0.14 | G -0.64 ± 0.12 | S -0.094 ± 0.17 | T 0.12 ± 0.13 | H 0.409 ± 0.22
V9: F -0.257 ± 0.24 | E -0.053 ± 0.15 | D -0.287 ± 0.084 | A -0.042 ± 0.099 | C -0.817 ± 0.26
L1: G -0.129 ± 0.13 | R -0.185 ± 0.14 | C 0.414 ± 0.19 | I 0.781 ± 0.11 | Q -0.468 ± 0.24 | W -0.426 ± 0.12 | F 0.761 ± 0.073 | H -0.174 ± 0.48 | K -0.363 ± 0.14 | N 1.01 ± 0.2 | M 0.071 ± 0.082 | S -0.069 ± 0.089 | A -0.175 ± 0.22 | E -0.245 ± 0.33 | T 0.035 ± 0.1
T4: Q -0.729 ± 0.36 | L -1.21 ± 0.39 | W -0.889 ± 0.23 | A -0.889 ± 0.26 | S -0.345 ± 0.16 | N -0.205 ± 0.25 | M -0.878 ± 0.24 | D -0.2 ± 0.21 | C -0.395 ± 0.2 | K -0.964 ± 0.48 | E -0.448 ± 0.16 | R -0.979 ± 0.23 | I -0.288 ± 0.46 | V -0.947 ± 0.28 | G -0.623 ± 0.17
H3: T 0.147 ± 0.087 | M 0.478 ± 0.15 | P -0.14 ± 0.14 | Y -0.328 ± 0.25 | Q -0.015 ± 0.12 | A -0.013 ± 0.12 | K 0.506 ± 0.1 | E 0.34 ± 0.13 | W -0.572 ± 0.12 | N 0.177 ± 0.16 | L 0.048 ± 0.074 | G 0.42 ± 0.067 | V 0.234 ± 0.089 | C -0.642 ± 0.17 | F -0.359 ± 0.17

Reference: the Human Domainome abundance scans (Beltran et al. 2025)
